Results reported in the supplement of paper PMC9112550, “Optimization of the antimicrobial peptide Bac7 by deep mutational scanning” (BMC Biology, 2022).

Tested on: Escherichia coli TOP10
Experiment: shrunken log2 fold change of peptide-encoding DNA abundance (4.5 h post-induction vs induction); higher = less antimicrobial activity (less host growth inhibition)
Details: time post-induction: 4.5 h; library: site-saturation at positions 5, 18, 19, 20
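Further: peptides expressed intracellularly from a pBAD plasmid library in pooled LB shake-flask culture, induced with 0.3% L-arabinose, DNA abundance read by NGS, three biological replicates, DESeq2 with apeglm shrinkage.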

| Sequence | shrunken log2 fold change |
| --- | --- |
| RRIRIRPPRLPRPRPRPIYNPRP | -1.18 |
| RRIRSRPPRLPRPRPRPPTLPRP | 0.0631 |
| RRIRMRPPRLPRPRPRPPWEPRP | 0.601 |
| RRIRGRPPRLPRPRPRPFVMPRP | -0.0182 |
| RRIRVRPPRLPRPRPRPFVCPRP | -0.744 |
| RRIRVRPPRLPRPRPRPPQHPRP | 0.186 |
| RRIRQRPPRLPRPRPRPFCPPRP | -0.236 |
| RRIRERPPRLPRPRPRPEIPPRP | 0.151 |
| RRIRIRPPRLPRPRPRPWMPPRP | -0.131 |
| RRIRMRPPRLPRPRPRPWSSPRP | -0.145 |
| RRIRCRPPRLPRPRPRPMLGPRP | -0.0961 |
| RRIRSRPPRLPRPRPRPFIDPRP | -0.0941 |
| RRIRPRPPRLPRPRPRPIAGPRP | 0.0445 |
| RRIRDRPPRLPRPRPRPIQFPRP | -0.177 |
| RRIRPRPPRLPRPRPRPYMAPRP | -1.07 |
| RRIRNRPPRLPRPRPRPYEQPRP | -0.54 |
| RRIRWRPPRLPRPRPRPKLVPRP | 0.00348 |
| RRIRDRPPRLPRPRPRPKWQPRP | 0.276 |
| RRIRERPPRLPRPRPRPKDAPRP | -0.222 |
| RRIRQRPPRLPRPRPRPENRPRP | 0.0211 |
| RRIRTRPPRLPRPRPRPEMKPRP | 0.258 |
| RRIRYRPPRLPRPRPRPSYEPRP | -0.629 |
| RRIRQRPPRLPRPRPRPFWTPRP | -0.166 |
| RRIRNRPPRLPRPRPRPHLAPRP | 0.131 |
| RRIRKRPPRLPRPRPRPQMKPRP | -0.0666 |

| Sequence | shrunken log2 fold change |
| --- | --- |
| RRIRARPPRLPRPRPRPVFCPRP | 0.487 |
| RRIRKRPPRLPRPRPRPFDAPRP | 0.337 |
| RRIRWRPPRLPRPRPRPSSHPRP | -0.248 |
| RRIRFRPPRLPRPRPRPDHIPRP | -0.00578 |
| RRIRCRPPRLPRPRPRPSWFPRP | -0.147 |
| RRIRIRPPRLPRPRPRPASVPRP | -0.102 |
| RRIRLRPPRLPRPRPRPWVFPRP | 0.163 |
| RRIRYRPPRLPRPRPRPMCCPRP | -3.16 |
| RRIRGRPPRLPRPRPRPKTQPRP | 0.929 |
| RRIRDRPPRLPRPRPRPTVDPRP | 0.195 |
| RRIRYRPPRLPRPRPRPMDMPRP | -0.00926 |
| RRIRERPPRLPRPRPRPQMPPRP | -0.292 |
| RRIRRRPPRLPRPRPRPGDQPRP | 0.272 |
| RRIRFRPPRLPRPRPRPIFYPRP | -0.0962 |
| RRIRNRPPRLPRPRPRPLATPRP | 0.292 |
| RRIRQRPPRLPRPRPRPFSGPRP | -0.0802 |
| RRIRCRPPRLPRPRPRPLYHPRP | -0.695 |
| RRIRFRPPRLPRPRPRPWNCPRP | -0.0434 |
| RRIRDRPPRLPRPRPRPLSYPRP | 0.194 |
| RRIRNRPPRLPRPRPRPHETPRP | -0.127 |
| RRIRFRPPRLPRPRPRPDPTPRP | 0.0215 |
| RRIRYRPPRLPRPRPRPIMRPRP | 0.0675 |
| RRIRERPPRLPRPRPRPIALPRP | -0.0132 |
| RRIRRRPPRLPRPRPRPRVKPRP | 0.699 |
| RRIRPRPPRLPRPRPRPKNDPRP | -0.108 |

| Sequence | shrunken log2 fold change |
| --- | --- |
| RRIRGRPPRLPRPRPRPRCCPRP | 0.474 |
| RRIRVRPPRLPRPRPRPKESPRP | -0.0206 |
| RRIRERPPRLPRPRPRPKDYPRP | 0.101 |
| RRIRMRPPRLPRPRPRPPATPRP | 2.56 |
| RRIRCRPPRLPRPRPRPFPCPRP | -0.367 |
| RRIRHRPPRLPRPRPRPGDRPRP | 2.17 |
| RRIRIRPPRLPRPRPRPLGYPRP | -0.303 |
| RRIRPRPPRLPRPRPRPGHIPRP | -0.196 |
| RRIRNRPPRLPRPRPRPPLVPRP | 0.089 |
| RRIRIRPPRLPRPRPRPGVIPRP | -0.0127 |
| RRIRQRPPRLPRPRPRPNMAPRP | -0.173 |
| RRIRMRPPRLPRPRPRPEISPRP | 0.0502 |
| RRIRTRPPRLPRPRPRPREDPRP | -0.147 |
| RRIRLRPPRLPRPRPRPYVCPRP | -0.0658 |
| RRIRWRPPRLPRPRPRPGCLPRP | 0.792 |
| RRIRPRPPRLPRPRPRPDDEPRP | 0.331 |
| RRIRLRPPRLPRPRPRPFYNPRP | -0.584 |
| RRIRMRPPRLPRPRPRPPLMPRP | 1.34 |
| RRIRGRPPRLPRPRPRPGPGPRP | 1.65 |
| RRIRWRPPRLPRPRPRPQVIPRP | -0.127 |
| RRIRARPPRLPRPRPRPRWWPRP | 0.199 |
| RRIRVRPPRLPRPRPRPTQQPRP | 0.346 |
| RRIRFRPPRLPRPRPRPGPGPRP | 0.676 |
| RRIRLRPPRLPRPRPRPESLPRP | 0.157 |
| RRIRHRPPRLPRPRPRPKPGPRP | 0.21 |

| Sequence | shrunken log2 fold change |
| --- | --- |
| RRIRTRPPRLPRPRPRPGGDPRP | 0.46 |
| RRIRHRPPRLPRPRPRPERFPRP | -0.0122 |
| RRIRPRPPRLPRPRPRPPPFPRP | 0.277 |
| RRIRWRPPRLPRPRPRPKSPPRP | 0.819 |
| RRIRQRPPRLPRPRPRPVFFPRP | 0.0102 |
| RRIRLRPPRLPRPRPRPCKNPRP | -0.0458 |
| RRIRGRPPRLPRPRPRPKNEPRP | 0.713 |
| RRIRDRPPRLPRPRPRPRDRPRP | 0.13 |
| RRIRKRPPRLPRPRPRPVCAPRP | 0.904 |
| RRIRKRPPRLPRPRPRPIKHPRP | 0.567 |
| RRIRRRPPRLPRPRPRPQLDPRP | -0.0387 |
| RRIRDRPPRLPRPRPRPMMGPRP | 0.0397 |
| RRIRFRPPRLPRPRPRPTCWPRP | 0.0659 |
| RRIRDRPPRLPRPRPRPYCYPRP | -0.125 |
| RRIRLRPPRLPRPRPRPKDFPRP | 0.0642 |
| RRIRCRPPRLPRPRPRPGETPRP | 0.238 |
| RRIRHRPPRLPRPRPRPNMKPRP | -0.855 |
| RRIRSRPPRLPRPRPRPAMWPRP | 0.0276 |
| RRIRYRPPRLPRPRPRPPCDPRP | -0.196 |
| RRIRFRPPRLPRPRPRPEWVPRP | -0.0753 |
| RRIRLRPPRLPRPRPRPSPNPRP | -0.183 |
| RRIRWRPPRLPRPRPRPIVLPRP | -0.628 |
| RRIRYRPPRLPRPRPRPCETPRP | 0.00591 |
| RRIRRRPPRLPRPRPRPVPCPRP | 0.0337 |
| RRIRDRPPRLPRPRPRPPQGPRP | 0.289 |

| Sequence | shrunken log2 fold change |
| --- | --- |
| RRIRYRPPRLPRPRPRPTEQPRP | -0.0161 |
| RRIRCRPPRLPRPRPRPLCAPRP | 0.12 |
| RRIRHRPPRLPRPRPRPISDPRP | -0.179 |
| RRIRARPPRLPRPRPRPPHVPRP | 0.805 |
| RRIRKRPPRLPRPRPRPCTGPRP | 0.0143 |
| RRIRLRPPRLPRPRPRPNNQPRP | -0.287 |
| RRIRFRPPRLPRPRPRPMKEPRP | -0.187 |
| RRIRCRPPRLPRPRPRPFYNPRP | -1.05 |
| RRIRSRPPRLPRPRPRPPITPRP | -0.177 |
| RRIRTRPPRLPRPRPRPFYIPRP | -0.57 |
| RRIRGRPPRLPRPRPRPETEPRP | 2.25 |
| RRIRQRPPRLPRPRPRPHGRPRP | -0.0154 |
| RRIRYRPPRLPRPRPRPQILPRP | -0.0395 |
| RRIRERPPRLPRPRPRPRNPPRP | -0.0856 |
| RRIRIRPPRLPRPRPRPMDCPRP | -0.115 |
| RRIRIRPPRLPRPRPRPAIWPRP | 0.0492 |
| RRIRYRPPRLPRPRPRPLYNPRP | -1.11 |
| RRIRARPPRLPRPRPRPYQWPRP | -0.0841 |
| RRIRVRPPRLPRPRPRPAPKPRP | 0.438 |
| RRIRSRPPRLPRPRPRPGLFPRP | 0.163 |
| RRIRTRPPRLPRPRPRPTDNPRP | -0.302 |
| RRIRDRPPRLPRPRPRPRVNPRP | -0.149 |
| RRIRQRPPRLPRPRPRPCLTPRP | 0.0158 |
| RRIRPRPPRLPRPRPRPITSPRP | -0.354 |
| RRIRCRPPRLPRPRPRPVNCPRP | -0.0215 |
